Test results published in paper PMC2186165.

Target: B lymphocyte surface IgM (mouse (endogenous in spleen cells))
Assay: cocapping

Sequence of B lymphocyte surface IgM (mouse (endogenous in spleen cells)) (P01872 whole entry): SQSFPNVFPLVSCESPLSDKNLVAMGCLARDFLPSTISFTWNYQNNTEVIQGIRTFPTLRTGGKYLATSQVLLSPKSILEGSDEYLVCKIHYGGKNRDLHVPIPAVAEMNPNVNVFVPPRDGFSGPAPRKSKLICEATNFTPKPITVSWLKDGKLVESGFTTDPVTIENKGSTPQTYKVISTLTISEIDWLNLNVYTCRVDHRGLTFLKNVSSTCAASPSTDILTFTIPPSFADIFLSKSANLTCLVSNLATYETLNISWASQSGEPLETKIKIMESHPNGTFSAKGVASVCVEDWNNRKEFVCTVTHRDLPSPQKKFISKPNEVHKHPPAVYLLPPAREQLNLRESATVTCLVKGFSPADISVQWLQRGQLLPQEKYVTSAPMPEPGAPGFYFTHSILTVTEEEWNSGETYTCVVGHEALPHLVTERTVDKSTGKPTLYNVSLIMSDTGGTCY

% of B lymphocytes with capped sIgM that also had capped FcGR (12 experiments): 86%
% of FcGR-positive cells with FcGR capped (Table III, experiment B, part 4): 62%
% of FcGR-positive cells with FcGR capped (Table IV, part 4): 46%
Substance: B lymphocyte Fc IgG receptor (from UniProt P08101 30-330)
